Key:
Assay in all cases: SPR
[1] = target: RpfG-MBP (Lysobacter enzymogenes)
[2] = target: HtsH3C-Myc-His (cytoplasmic fragment of HtsH3) (Lysobacter enzymogenes)
[3] = target: HtsH2C-HA-His (cytoplasmic fragment of HtsH2) (Lysobacter enzymogenes)

| Substance | Kd [1] [pM] | Kd [2] [pM] | Kd [3] [pM] |
| --- | --- | --- | --- |
| HtsH3C-Myc-His (cytoplasmic fragment of HtsH3) (domain or fragment) | 168 | – | – |
| HtsH2C-HA-His (cytoplasmic fragment of HtsH2) (domain or fragment) | 300 | 178 | – |
| HtsH1C-Flag-His (cytoplasmic fragment of HtsH1) (domain or fragment) | 66.8 | 160 | 96.2 |
